From patent US20160185837A1 (AstraZeneca / MedImmune, published 2016)
Numbering of substitutions follows the chain as printed. Ends that are not written are not given here.

T1: mouse GIP receptor (mouse, UniProt Q0P543 19-460)
T1 sequence (looked up): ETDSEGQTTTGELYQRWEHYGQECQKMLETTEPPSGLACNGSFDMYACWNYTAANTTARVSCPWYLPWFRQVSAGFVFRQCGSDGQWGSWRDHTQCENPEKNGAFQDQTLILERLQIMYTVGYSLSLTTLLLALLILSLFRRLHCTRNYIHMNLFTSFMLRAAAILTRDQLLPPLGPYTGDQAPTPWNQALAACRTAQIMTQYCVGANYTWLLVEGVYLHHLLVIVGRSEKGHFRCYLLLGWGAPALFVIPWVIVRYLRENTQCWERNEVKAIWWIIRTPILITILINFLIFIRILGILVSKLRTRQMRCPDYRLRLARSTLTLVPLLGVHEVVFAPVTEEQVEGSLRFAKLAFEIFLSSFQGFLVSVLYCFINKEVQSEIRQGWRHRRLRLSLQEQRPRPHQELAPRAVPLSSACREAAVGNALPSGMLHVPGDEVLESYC

T2: mouse GLP-1 receptor (mouse, UniProt O35659 22-463)
T2 sequence (looked up): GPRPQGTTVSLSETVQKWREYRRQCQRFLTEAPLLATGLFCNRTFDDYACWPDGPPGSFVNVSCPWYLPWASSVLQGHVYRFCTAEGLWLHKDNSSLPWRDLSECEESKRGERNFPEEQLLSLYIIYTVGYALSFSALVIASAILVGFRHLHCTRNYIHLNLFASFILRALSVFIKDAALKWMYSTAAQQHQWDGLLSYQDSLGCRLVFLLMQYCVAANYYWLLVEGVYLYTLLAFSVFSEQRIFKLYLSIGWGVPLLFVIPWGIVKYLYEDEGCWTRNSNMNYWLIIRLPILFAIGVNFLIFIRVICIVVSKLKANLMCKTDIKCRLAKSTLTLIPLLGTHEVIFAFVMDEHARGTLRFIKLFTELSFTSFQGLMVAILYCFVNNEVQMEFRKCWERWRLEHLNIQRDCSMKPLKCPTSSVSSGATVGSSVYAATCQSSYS

T3: rat GIP receptor (rat, UniProt P43219 19-455)
T3 sequence (looked up): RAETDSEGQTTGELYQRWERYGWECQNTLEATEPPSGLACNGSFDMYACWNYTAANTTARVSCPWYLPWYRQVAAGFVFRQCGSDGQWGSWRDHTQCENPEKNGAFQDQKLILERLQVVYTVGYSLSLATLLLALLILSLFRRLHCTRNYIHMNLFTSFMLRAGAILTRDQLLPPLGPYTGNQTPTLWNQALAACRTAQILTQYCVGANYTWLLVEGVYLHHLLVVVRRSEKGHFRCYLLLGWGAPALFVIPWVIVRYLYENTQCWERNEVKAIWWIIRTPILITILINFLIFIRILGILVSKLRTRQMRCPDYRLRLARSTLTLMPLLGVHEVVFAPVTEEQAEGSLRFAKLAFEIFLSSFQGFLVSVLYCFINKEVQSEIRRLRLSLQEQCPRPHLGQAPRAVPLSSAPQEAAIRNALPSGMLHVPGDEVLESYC

T4: rat GLP-1 receptor (rat, UniProt P32301 22-463)
T4 sequence (looked up): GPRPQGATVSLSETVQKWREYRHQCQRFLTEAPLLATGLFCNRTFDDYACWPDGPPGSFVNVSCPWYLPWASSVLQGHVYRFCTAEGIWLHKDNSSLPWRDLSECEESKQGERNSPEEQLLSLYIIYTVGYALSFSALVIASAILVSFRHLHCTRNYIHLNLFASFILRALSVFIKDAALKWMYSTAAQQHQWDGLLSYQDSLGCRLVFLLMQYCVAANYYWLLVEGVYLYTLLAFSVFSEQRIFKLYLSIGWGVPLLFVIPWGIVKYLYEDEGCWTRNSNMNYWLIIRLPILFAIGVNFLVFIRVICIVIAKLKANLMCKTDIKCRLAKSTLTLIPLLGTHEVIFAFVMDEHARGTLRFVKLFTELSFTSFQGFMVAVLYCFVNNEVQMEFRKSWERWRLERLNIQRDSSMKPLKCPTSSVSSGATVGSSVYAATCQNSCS

T5: human GIP receptor (human, UniProt P48546 22-466)
T5 sequence (looked up): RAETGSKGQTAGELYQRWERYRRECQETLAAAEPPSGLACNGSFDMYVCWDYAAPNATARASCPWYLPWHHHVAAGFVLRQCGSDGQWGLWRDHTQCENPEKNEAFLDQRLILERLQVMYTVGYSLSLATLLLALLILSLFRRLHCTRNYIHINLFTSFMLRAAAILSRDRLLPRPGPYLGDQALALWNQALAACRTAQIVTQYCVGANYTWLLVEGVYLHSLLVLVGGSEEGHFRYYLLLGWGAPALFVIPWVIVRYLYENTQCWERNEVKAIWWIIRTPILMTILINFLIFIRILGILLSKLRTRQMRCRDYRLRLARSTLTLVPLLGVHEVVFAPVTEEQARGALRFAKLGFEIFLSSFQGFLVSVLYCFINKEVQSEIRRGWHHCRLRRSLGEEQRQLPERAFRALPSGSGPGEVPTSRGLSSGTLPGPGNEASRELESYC

B1: IP244 (Fc fusion)
chain: YSEGTFTSDVSKLLEEEAVRLFIEWLLAGAPPGGSGSTASSGSGSATGGGGAATHTCPPCPAPEF
B2: IP124 (Fc fusion)
chain: B1 chain with V10Y, L27V, A28K, P31A, P32A
B3: IP085 (Fc fusion)
chain: B1 chain with V10Y
B4: IP236 (Fc fusion)
chain: YSEGTFTSDYSKLLEEEAVRLFIEWLVKGPGGGGGSGGGGSGGGGSATHTCPPCPAPEF
modifications: cysteine pairing not given here; also: fused to IgG1-TM Fc
B5: IP237 (Fc fusion)
chain: YSEGTFTSDYSKLLEEEAVRLFIEWLVKGPGGGGGSGGGGSGGGGSGGGGSATHTCPPCPAPEF
B6: IP383 (Fc fusion)
chain: YSEGTFTSLYRILLEEEAVRLFIEWLLAGGGGGGSGGGGSGGGGSGGGGSATHTCPPC
B7: IP222 (Fc fusion)
chain: YSEGTFTSDYSKLLEEEAVRLFIEWLKNGGPSSGAPPPSAAAGGSGSTASSGSGSATGGGGAATHTCPPCPAPEF
B8: IP257 (Fc fusion)
chain: SEGTFTSDYSKLLEEEAVRLFIEWLVKGPGGGGGSGGGGSGGGGSGGGGSATHTCPPCPAPEF
B9: IP249 (Fc fusion)
chain: YSEGTFTSDYSKLLEEEAVRLFIEWLLAQKAAAGGSGSTASSGSGSATGGGGAATHTCPPCPAPEF
B10: IP245 (Fc fusion)
chain: B9 chain with K12I, L13A, L14M, E15D, L27V, A28K, Q29G, K30P
B11: IP149 (Fc fusion)
chain: B9 chain with E3Q, L27V, A28K, Q29G, K30P, A32P, A33P
B12: IP235 (Fc fusion)
chain: YSEGTFTSDYSKLLEEEAVRLFIEWLVKGPGGGGGSGGGGSATHTCPPCPAPEF
modifications: cysteine pairing not given here; also: fused to IgG1-TM Fc
B13: IP024 (Fc fusion)
chain: B1 chain with V10Y, P31A, P32A
B14: IP127 (Fc fusion)
chain: B9 chain with Y10V, K12S, L13Y, L21E, Q29G, K30G
B15: IP147 (Fc fusion)
chain: B9 chain with L27V, A28K, Q29G, K30P, A32P, A33P
B16: IP228 (Fc fusion)
chain: B9 chain with L27K, A28N, Q29G, K30G

What follows are binders tested against T1, mouse GIP receptor (assay: cell-based or functional assay).

Row | Binder | cAMP EC50 [nM] | cAMP EC50, Batch 4 [nM] | cAMP EC50, Batch 2 [nM]
1 | B1 | 3.6 | – | –
2 | B2 | 130 | – | –
3 | B3 | 0.72 | 0.21 | –
4 | B4 | 460 | – | –
5 | B5 | 170 | – | –
6 | B6 | 46.7 | – | –
7 | B7 | 160 | – | –
8 | B8 | 4300 | – | –
9 | B9 | 180 | – | –
10 | B10 | 190 | – | –
11 | B11 | – | – | 53
12 | B12 | 2600 | – | –

The binders below were run against T2, mouse GLP-1 receptor (assay: cell-based or functional assay).

Row | Binder | cAMP EC50 [nM] | cAMP EC50, Batch 4 [nM] | cAMP EC50, Batch 2 [nM]
13 | B13 | 1.1 | – | –
14 | B1 | 0.79 | – | –
15 | B2 | 0.42 | – | –
16 | B3 | 0.95 | 0.58 | –
17 | B4 | 0.3 | – | –
18 | B5 | 0.29 | – | –
19 | B14 | 0.6 | – | –
20 | B6 | 20.1 | – | –
21 | B7 | 0.46 | – | –
22 | B8 | 46 | – | –
23 | B15 | 8.5 | – | –
24 | B9 | 15 | – | –
25 | B16 | 0.69 | – | –
26 | B10 | 4.8 | – | –
27 | B11 | – | – | 0.37
28 | B12 | 0.6 | – | –

What follows are binders tested against T3, rat GIP receptor (assay: cell-based or functional assay).

Row | Binder | cAMP EC50 [nM] | cAMP EC50, Batch 4 [nM] | cAMP EC50, Batch 2 [nM]
29 | B13 | 0.047 | – | –
30 | B1 | 0.17 | – | –
31 | B2 | 0.31 | – | –
32 | B3 | 0.15 | 0.031 | –
33 | B4 | 0.21 | – | –
34 | B5 | 0.14 | – | –
35 | B14 | 17 | – | –
36 | B6 | 0.976 | – | –
37 | B7 | 0.72 | – | –
38 | B8 | 190 | – | –
39 | B15 | 6.8 | – | –
40 | B9 | 0.19 | – | –
41 | B16 | 7 | – | –
42 | B10 | 48 | – | –
43 | B11 | – | – | 0.19
44 | B12 | 0.65 | – | –

What follows are binders tested against T4, rat GLP-1 receptor (assay: cell-based or functional assay).

Row | Binder | cAMP EC50 [nM] | cAMP EC50, Batch 4 [nM] | cAMP EC50, Batch 2 [nM]
45 | B13 | 0.083 | – | –
46 | B1 | 0.066 | – | –
47 | B2 | 0.062 | – | –
48 | B3 | 0.1 | 0.023 | –
49 | B4 | 0.024 | – | –
50 | B5 | 0.023 | – | –
51 | B14 | 0.047 | – | –
52 | B6 | 0.13 | – | –
53 | B7 | 0.058 | – | –
54 | B8 | 1.3 | – | –
55 | B15 | 1.1 | – | –
56 | B9 | 0.15 | – | –
57 | B16 | 0.096 | – | –
58 | B10 | 0.4 | – | –
59 | B11 | – | – | 0.031
60 | B12 | 0.037 | – | –

The binders below were run against human glucagon receptor (human, UniProt P47871 26-477) (assay: cell-based or functional assay).

Row | Binder | cAMP EC50 [nM] | cAMP EC50, Batch 2 [nM] | cAMP EC50, Batch 4 [nM]
61 | B13 | 17 | 25 | –
62 | B3 | 7.1 | – | 3.6
63 | B4 | > 5500 | – | –
64 | B5 | > 1800 | – | –
65 | B6 | > 1610 | – | –
66 | B7 | 590 | – | –
67 | B15 | 130 | – | –
68 | B16 | 1400 | – | –
69 | B11 | 0.2 | 0.23 | –
70 | B12 | > 9900 | – | –

These binders were tested against T5, human GIP receptor (assay: cell-based or functional assay).

Row | Binder | cAMP EC50 [nM] | cAMP EC50, Batch 2 [nM] | cAMP EC50, Batch 4 [nM]
71 | B13 | 0.0071 | 0.01 | –
72 | B1 | 0.042 | – | –
73 | B2 | 0.009 | – | –
74 | B3 | 0.0099 | – | 0.0065
75 | B4 | 0.016 | – | –
76 | B5 | 0.012 | – | –
77 | B14 | 0.12 | – | –
78 | B7 | 0.015 | – | –
79 | B8 | 180 | – | –
80 | B15 | 0.0037 | – | –
81 | B9 | 0.019 | – | –
82 | B16 | 0.014 | – | –
83 | B10 | 0.15 | – | –
84 | B11 | 0.0081 | 0.012 | –
85 | B12 | 0.021 | – | –

These binders were tested against human GLP-1 receptor (human, UniProt P43220 24-463) (assay: cell-based or functional assay).

Row | Binder | cAMP EC50 [nM] | cAMP EC50, Batch 2 [nM] | cAMP EC50, Batch 4 [nM]
86 | B13 | 0.095 | 0.16 | –
87 | B1 | 0.18 | – | –
88 | B2 | 0.091 | – | –
89 | B3 | 0.15 | – | 0.1
90 | B4 | 0.15 | – | –
91 | B5 | 0.095 | – | –
92 | B14 | 0.087 | – | –
93 | B6 | 0.19 | – | –
94 | B7 | 0.14 | – | –
95 | B8 | 7.2 | – | –
96 | B15 | 0.067 | – | –
97 | B9 | 2.6 | – | –
98 | B16 | 0.16 | – | –
99 | B10 | 0.46 | – | –
100 | B11 | 0.07 | 0.12 | –
101 | B12 | 0.23 | – | –
